Source: article PMC8470970, “A Novel L-Asparaginase from Hyperthermophilic Archaeon Thermococcus sibiricus: Heterologous Expression and Characterization for Biotechnology Application” (International Journal of Molecular Sciences, 2021)

Substrate: NC(=O)C[C@H](N)C(=O)O
Experiment: ammonia release by direct Nesslerization; Lineweaver-Burk plot
Type: biochemical, Thermococcus sibiricus
Details: Tris-HCl 0.05 M, pH 9.0, 90 °C, printed substrate range 20-250 μM

B1: TsA (L-asparaginase from Thermococcus sibiricus) (Thermococcus sibiricus MM 739) (protein)
chain: MKKLLIIGTGGTIASAKTEQGYKSVLKIDEILKLAKIKLENGYKIDSTNIMNIDSTLIHPEDWEIIAKEVFKALDDYDGIIITHGTDTLAYTASMLSFMIKNPNKPIVLTGSMLPITENGSDAPRNIRTAIKFAMEDVAGVFVAFMDKIMLGCRTSKVRTLGLNAFMSINYPDVAYVKGEKILYNIPKEKFQPNGSPELDTKYEPRVVVLRVTPGLGGEIIDAVLDAGYKGIVLEGYGAGGLPYRKSNLLSKIKEITPKIPVIMTTQALYDGVDMRKYEVGRKALETGIIPAKDMTKEATITKLMWALGHTKDVEKIREIMHTNYVNEIKS
notes: full-length, 331 residues, codon-optimized synthetic gene in pET-28a(+) NheI/SalI, E. coli BL21 (DE3); SP-Sepharose ion exchange
Protein B1 has a Km of 2800 µM.
